# In PMC8691596:
# Experiments:
# [1] = molecular target: mouse FcRn, heterodimer with β2 microglobulin, extracellular domain with C-terminal hexa-His (mouse | not stated) (UniProt Q61559); assay: SPR
# [2] = molecular target: cynomolgus monkey FcRn, heterodimer with β2 microglobulin, extracellular domain with C-terminal hexa-His (cynomolgus monkey | not stated) (UniProt Q8SPV9); assay: SPR
# [3] = molecular target: human FcRn, heterodimer with β2 microglobulin, extracellular domain with C-terminal hexa-His (UniProt P55899); assay: SPR
# [4] = molecular target: human FcγRIIa H131 extracellular domain, C-terminal hexa-His (independently-made panel) (human) (UniProt P12318)
# human FcγRIIa H131 extracellular domain, C-terminal hexa-His (independently-made panel) (human), sequence (P12318 34-217): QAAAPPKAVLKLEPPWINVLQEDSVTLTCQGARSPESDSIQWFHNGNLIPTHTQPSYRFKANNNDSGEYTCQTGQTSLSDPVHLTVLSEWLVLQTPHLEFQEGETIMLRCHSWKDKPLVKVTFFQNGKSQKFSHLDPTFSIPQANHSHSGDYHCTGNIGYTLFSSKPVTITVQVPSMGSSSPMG
# cynomolgus monkey FcRn, heterodimer with β2 microglobulin, extracellular domain with C-terminal hexa-His (cynomolgus monkey | not stated), sequence (Q8SPV9 24-297, chain 1 of 2): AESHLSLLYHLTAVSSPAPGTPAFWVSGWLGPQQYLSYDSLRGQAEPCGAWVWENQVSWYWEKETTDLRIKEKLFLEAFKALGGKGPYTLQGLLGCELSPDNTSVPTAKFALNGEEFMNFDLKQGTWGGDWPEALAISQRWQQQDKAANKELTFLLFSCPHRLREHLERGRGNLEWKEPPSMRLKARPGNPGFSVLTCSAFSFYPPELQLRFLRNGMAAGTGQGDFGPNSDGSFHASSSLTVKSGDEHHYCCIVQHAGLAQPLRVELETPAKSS
# cynomolgus monkey FcRn, heterodimer with β2 microglobulin, extracellular domain with C-terminal hexa-His (cynomolgus monkey | not stated), sequence (Q6T672 21-119, chain 2 of 2, further chain): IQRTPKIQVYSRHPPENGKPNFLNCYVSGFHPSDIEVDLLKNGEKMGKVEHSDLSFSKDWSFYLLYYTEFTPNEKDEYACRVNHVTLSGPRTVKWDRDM
# mouse FcRn, heterodimer with β2 microglobulin, extracellular domain with C-terminal hexa-His (mouse | not stated), sequence (Q61559 22-297, chain 1 of 2): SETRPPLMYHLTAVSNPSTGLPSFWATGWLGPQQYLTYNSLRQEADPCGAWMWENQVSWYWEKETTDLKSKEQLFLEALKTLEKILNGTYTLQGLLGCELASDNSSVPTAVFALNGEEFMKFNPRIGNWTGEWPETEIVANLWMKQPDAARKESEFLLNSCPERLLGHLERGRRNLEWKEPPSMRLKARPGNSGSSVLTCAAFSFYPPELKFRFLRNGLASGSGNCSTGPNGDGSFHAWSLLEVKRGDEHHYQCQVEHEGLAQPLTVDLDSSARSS
# mouse FcRn, heterodimer with β2 microglobulin, extracellular domain with C-terminal hexa-His (mouse | not stated), sequence (P01887 21-119, chain 2 of 2, further chain): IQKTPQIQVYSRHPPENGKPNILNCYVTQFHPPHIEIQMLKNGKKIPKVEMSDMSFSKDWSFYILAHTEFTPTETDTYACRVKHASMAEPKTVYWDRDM
# human FcRn, heterodimer with β2 microglobulin, extracellular domain with C-terminal hexa-His, sequence (P55899 24-297, chain 1 of 2): as the sequence (Q8SPV9 24-297, chain 1 of 2) above, with D39N, Q44E, S99G, G189S, N190S, M217L, T269S counted along it
# human FcRn, heterodimer with β2 microglobulin, extracellular domain with C-terminal hexa-His, sequence (partner, as listed by the source, chain 2 of 2): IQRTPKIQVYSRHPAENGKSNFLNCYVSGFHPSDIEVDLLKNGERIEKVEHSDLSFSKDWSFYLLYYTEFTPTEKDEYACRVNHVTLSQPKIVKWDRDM
Substance,Kd [1],Kd [2],Kd [3],"Mean normalised luminescence (% of wild-type reference); Promega Fc effector bioassay, Jurkat NFAT-luciferase cells with the receptor + Raji cells, antibody 10 μg/mL [4]"
"Remicade (rituximab, wild-type human IgG1) (from UniProt P01857)",71 nM,347 nM,562 nM,–
anti-CD20 (rituximab variable regions) human IgG1 wild type reference (antibody),–,–,–,100%
